Test results taken from patent US20050118674A1, “Engineering of Controlled Deamidation Rates in Peptides, Proteins, and Similar Structures” (priority 2003, published 2005).
Where no end group is shown, it is not given here.

assay: First-order nonenzymatic deamidation of pentapeptides in Tris buffer; assay type: physicochemical; conditions: pH 7.4, 37.0° C., 0.15 M Tris HCl; Asn pentapeptides
Outline: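 First-order deamidation rates determined for XxxAsnYyy and XxxGlnYyy pentapeptides in 0.15 M Tris buffer, pH 7.4, 37° C. Not all values were measured directly: several Asn rates were estimated and most Gln rates came from surface fitting.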

Compared with “GlyGlyAsnPheGly (GGNFG; printed: GlyGlyAsnPheGly)”, “GlyCysAsnLeuGly (GCNLG; printed: GlyCysAsnLeuGly)” is higher in “First-Order Deamidation Halftimes of GlyXxxAsnYyyGly” value: 64.0 days for the first, 119 days for the second.

Compared with “GlyAlaAsnIleGly (GANIG; printed: GlyAlaAsnIleGly)”, “GlyLeuAsnThrGly (GLNTG; printed: GlyLeuAsnThrGly)” is lower in “First-Order Deamidation Halftimes of GlyXxxAsnYyyGly” value: 300 days for the first, 46.1 days for the second.

Going from “GlyMetAsnPheGly (GMNFG; printed: GlyMetAsnPheGly)” to “GlyGluAsnTrpGly (GENWG; printed: GlyGluAsnTrpGly)”, the “First-Order Deamidation Halftimes of GlyXxxAsnYyyGly” value rises from 61.9 days to 98.4 days.

First: GlyHisAsnArgGly (GHNRG; printed: GlyHisAsnArgGly)
Second: GlyThrAsnIleGly (GTNIG; printed: GlyThrAsnIleGly)
The “First-Order Deamidation Halftimes of GlyXxxAsnYyyGly” value of the first is lower: 48.9 days for the first, 279 days for the second.

Compared with “GlyThrAsnLeuGly (GTNLG; printed: GlyThrAsnLeuGly)”, “GlyLeuAsnIleGly (GLNIG; printed: GlyLeuAsnIleGly)” is higher in “First-Order Deamidation Halftimes of GlyXxxAsnYyyGly” value: 110 days for the first, 391 days for the second.

Going from “GlyGlyAsnTrpGly (GGNWG; printed: GlyGlyAsnTrpGly)” to “GlyTyrAsnPheGly (GYNFG; printed: GlyTyrAsnPheGly)”, the “First-Order Deamidation Halftimes of GlyXxxAsnYyyGly” value falls from 77.1 days to 58.0 days.

First: GlyProAsnProGly (GPNPG; printed: GlyProAsnProGly)
Second: GlyProAsnIleGly (GPNIG; printed: GlyProAsnIleGly)
The “First-Order Deamidation Halftimes of GlyXxxAsnYyyGly” value of the first is higher: 6590 days for the first, 455 days for the second.

Compared with “GlySerAsnGluGly (GSNEG; printed: GlySerAsnGluGly)”, “GlyIleAsnCysGly (GINCG; printed: GlyIleAsnCysGly)” is lower in “First-Order Deamidation Halftimes of GlyXxxAsnYyyGly” value: 59.7 days for the first, 52.7 days for the second.

First: GlyLysAsnTrpGly (GKNWG; printed: GlyLysAsnTrpGly)
Second: GlyGluAsnLeuGly (GENLG; printed: GlyGluAsnLeuGly)
The “First-Order Deamidation Halftimes of GlyXxxAsnYyyGly” value of the first is lower: 98.1 days for the first, 130 days for the second.

Compared with “GlyTyrAsnAspGly (GYNDG; printed: GlyTyrAsnAspGly)”, “GlyArgAsnSerGly (GRNSG; printed: GlyArgAsnSerGly)” is lower in “First-Order Deamidation Halftimes of GlyXxxAsnYyyGly” value: 28.4 days for the first, 14.3 days for the second.

Going from “GlyIleAsnTyrGly (GINYG; printed: GlyIleAsnTyrGly)” to “GlyAlaAsnAspGly (GANDG; printed: GlyAlaAsnAspGly)”, the “First-Order Deamidation Halftimes of GlyXxxAsnYyyGly” value falls from 79.3 days to 31.9 days.

Compared with “GlyCysAsnArgGly (GCNRG; printed: GlyCysAsnArgGly)”, “GlyArgAsnThrGly (GRNTG; printed: GlyArgAsnThrGly)” is lower in “First-Order Deamidation Halftimes of GlyXxxAsnYyyGly” value: 83.1 days for the first, 50.7 days for the second.

First: GlyArgAsnAmCysGly
Second: GlyMetAsnProGly (GMNPG; printed: GlyMetAsnProGly)
The “First-Order Deamidation Halftimes of GlyXxxAsnYyyGly” value of the first is lower: 42.3 days for the first, 9300 days for the second.

First: GlyCysAsnTyrGly (GCNYG; printed: GlyCysAsnTyrGly)
Second: GlyProAsnLysGly (GPNKG; printed: GlyProAsnLysGly)
The “First-Order Deamidation Halftimes of GlyXxxAsnYyyGly” value of the first is higher: 83.9 days for the first, 67.8 days for the second.

First: GlyMetAsnLeuGly (GMNLG; printed: GlyMetAsnLeuGly)
Second: GlyAmCysAsnProGly (CNPG; not fully specified (N-terminus); printed as GlyAmCysAsnProGly)
The “First-Order Deamidation Halftimes of GlyXxxAsnYyyGly” value of the first is lower: 113 days for the first, 3900 days for the second.

Compared with “GlyAmCysAsnPheGly (CNFG; not fully specified (N-terminus); printed as GlyAmCysAsnPheGly)”, “GlyMetAsnValGly (GMNVG; printed: GlyMetAsnValGly)” is higher in “First-Order Deamidation Halftimes of GlyXxxAsnYyyGly” value: 63.3 days for the first, 211 days for the second.

same assay, conditions: pH 7.4, 37.0 ° C., 0.15 M Tris HCl; Gln pentapeptides; 52 values measured, rest derived from surface fitting

First: GlyMetGlnProGly (GMQPG; printed: GlyMetGlnProGly)
Second: GlyThrGlnIleGly (GTQIG; printed: GlyThrGlnIleGly)
The “First-Order Deamidation Halftimes of GlyXxxGlnYyyGly” value of the first is higher: 7300 days for the first, 5300 days for the second.

Compared with “GlyThrGlnTyrGly (GTQYG; printed: GlyThrGlnTyrGly)”, “GlyMetGlnMetGly (GMQMG; printed: GlyMetGlnMetGly)” is lower in “First-Order Deamidation Halftimes of GlyXxxGlnYyyGly” value: 8400 days for the first, 3500 days for the second.

Compared with “GlyLeuGlnGluGly (GLQEG; printed: GlyLeuGlnGluGly)”, “GlyLeuGlnTyrGly (GLQYG; printed: GlyLeuGlnTyrGly)” is higher in “First-Order Deamidation Halftimes of GlyXxxGlnYyyGly” value: 7400 days for the first, 12000 days for the second.

First: GlyGluGlnThrGly (GEQTG; printed: GlyGluGlnThrGly)
Second: GlyIleGlnGluGly (GIQEG; printed: GlyIleGlnGluGly)
The “First-Order Deamidation Halftimes of GlyXxxGlnYyyGly” value of the first is lower: 5400 days for the first, 7700 days for the second.

Compared with “GlyAspGlnCysGly (GDQCG; printed: GlyAspGlnCysGly)”, “GlyIleGlnLysGly (GIQKG; printed: GlyIleGlnLysGly)” is higher in “First-Order Deamidation Halftimes of GlyXxxGlnYyyGly” value: 2100 days for the first, 6100 days for the second.

Compared with “GlyTyrGlnValGly (GYQVG; printed: GlyTyrGlnValGly)”, “GlyValGlnProGly (GVQPG; printed: GlyValGlnProGly)” is higher in “First-Order Deamidation Halftimes of GlyXxxGlnYyyGly” value: 8000 days for the first, 8500 days for the second.

Going from “GlyArgGlnAspGly (GRQDG; printed: GlyArgGlnAspGly)” to “GlySerGlnAlaGly (GSQAG; printed: GlySerGlnAlaGly)”, the “First-Order Deamidation Halftimes of GlyXxxGlnYyyGly” value rises from 5900 days to 6400 days.

First: GlyAlaGlnValGly (GAQVG; printed: GlyAlaGlnValGly)
Second: GlyTyrGlnAspGly (GYQDG; printed: GlyTyrGlnAspGly)
The “First-Order Deamidation Halftimes of GlyXxxGlnYyyGly” value of the first is lower: 6400 days for the first, 8600 days for the second.

Compared with “GlySerGlnTrpGly (GSQWG; printed: GlySerGlnTrpGly)”, “GlyThrGlnGlyGly (GTQGG; printed: GlyThrGlnGlyGly)” is lower in “First-Order Deamidation Halftimes of GlyXxxGlnYyyGly” value: 17000 days for the first, 670 days for the second.

Going from “GlySerGlnProGly (GSQPG; printed: GlySerGlnProGly)” to “GlySerGlnIleGly (GSQIG; printed: GlySerGlnIleGly)”, the “First-Order Deamidation Halftimes of GlyXxxGlnYyyGly” value falls from 10000 days to 5900 days.

First: GlyGlyGlnHisGly (GGQHG; printed: GlyGlyGlnHisGly)
Second: GlyProGlnValGly (GPQVG; printed: GlyProGlnValGly)
The “First-Order Deamidation Halftimes of GlyXxxGlnYyyGly” value of the first is lower: 5900 days for the first, 6200 days for the second.

Going from “GlyHisGlnAspGly (GHQDG; printed: GlyHisGlnAspGly)” to “GlyPheGlnSerGly (GFQSG; printed: GlyPheGlnSerGly)”, the “First-Order Deamidation Halftimes of GlyXxxGlnYyyGly” value rises from 5600 days to 5900 days.

First: GlyLysGlnAlaGly (GKQAG; printed: GlyLysGlnAlaGly)
Second: GlyTyrGlnSerGly (GYQSG; printed: GlyTyrGlnSerGly)
The “First-Order Deamidation Halftimes of GlyXxxGlnYyyGly” value of the first is lower: 4300 days for the first, 6400 days for the second.
